The values that follow come from US12624096B2, “Anti-tau antibodies and methods of use thereof” (GTInvent Limited, priority 2020, dated 2026).

“Also recorded” adds a separate entry of the source.

The target in one data set is dGAE (Homo sapiens, UniProt P10636). The data set is described as follows: dGAE fibril assembly, transmission electron microscopy. The conditions noted are these: dGAE:antibody 4:1 or 1:1, 700 rpm, 37° C., 3 days. It counts as biochemical. The protocol: dGAE protein was diluted into 10 mM phosphate buffer, pH 7.4 (PB) with monoclonal antibody s1D12 at a ratio of 4:1 protein: Ab (100 μM dGAE+25 μM s1D12 and 10 μM dGAE+2.5 μM s1D12) or 1:1 (25 μM dGAE+25 μM s1D12).
Sequence of dGAE (P10636 614-708): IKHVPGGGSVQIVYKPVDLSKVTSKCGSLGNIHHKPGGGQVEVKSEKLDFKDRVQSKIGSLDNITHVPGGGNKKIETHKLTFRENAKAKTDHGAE
As a positive control, dGAE was prepared at a final concentration of 10, 25 or 100 μM in 10 mM PB. Negative controls consisted of dGAE with a non-tau IgG antibody at a ratio of 4:1 (10 μM dGAE+2.5 μM anti-ovalbumin), or antibody alone (25 or 2.5 μM s1D12 and 2.5 μM anti-ovalbumin). Samples were agitated at 700 rpm at 37° C., for 3 days.
Transmission electron microscopy (TEM), circular dichroism (CD) and Thioflavin S (ThS) assays were performed as detailed in Al-Hilaly et, al. (2018) J. Mol. Biol. 430, 4119-4131. Briefly, TEM grids were prepared by adding 4 μL of sample to a carbon-coated grid followed by a wash with milli-Q filtered water then staining twice with 2% uranyl acetate. Grids were air dried and then imaged using a JEOL electron microscope operating at 80 kV.

For another data set, the target named is hT40 (Homo sapiens, UniProt P10636). The data set is described as follows: Sandwich ELISA, limits of detection (LoD) of antibody pairs. In kind it is binding. The conditions noted are these: S1D12 mAb capture. How it is done: Full length tau (hT40), at 1 μg/ml starting concentration was added to designated wells and double diluted across rest of the plates and left to incubate at R/T for 1 h. A series of detection scAbs with varying epitope recognition properties were added at 10 μg/ml to designated wells (FIG. 22). For colourimetric detection HRP conjugated anti-HuCk secondary antibody was used and the resulting immunoreaction was developed and absorbance at 450 nm measured as described previously. Cut-off point for a positive binding event was an absorbance value of 0.3 following background subtraction. In order to enhance the assay sensitivity, a chemiluminescent detection method was adopted where 50 μL SuperSignal ELISA Femto Substrate (Thermo Scientific) was added to each well following incubation with anti-HuCK HRP antibody and subsequent washing. The luminescence was read using Clariostar Plus microplate reader. A further modification to this protocol was done where various detection scAbs were directly conjugated with HRP and detected using chemiluminescent protocol as before. The lowest levels of detection achieved using different detection scAbs and a comparison of colourimetric and chemiluminescent methods of detection are shown in Table 28
Sequence of hT40 (P10636 1-441 isoform P10636-8): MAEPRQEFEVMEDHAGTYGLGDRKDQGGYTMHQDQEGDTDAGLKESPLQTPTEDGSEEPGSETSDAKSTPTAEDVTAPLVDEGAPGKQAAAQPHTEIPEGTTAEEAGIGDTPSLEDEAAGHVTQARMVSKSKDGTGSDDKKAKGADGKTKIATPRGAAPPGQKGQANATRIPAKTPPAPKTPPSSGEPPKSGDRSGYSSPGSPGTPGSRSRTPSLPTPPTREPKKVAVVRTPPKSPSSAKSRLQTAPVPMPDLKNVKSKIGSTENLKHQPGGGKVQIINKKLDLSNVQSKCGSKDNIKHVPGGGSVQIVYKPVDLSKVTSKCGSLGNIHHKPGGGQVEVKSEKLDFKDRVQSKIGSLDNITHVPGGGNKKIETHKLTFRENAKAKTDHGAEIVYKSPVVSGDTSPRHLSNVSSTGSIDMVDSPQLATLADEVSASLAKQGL
The assay was conducted using chemiluminescent protocol described above.

Data set [1] concerns tau protein in brain homogenate. The data set is described as follows: Capture ELISA on transgenic mouse brain lysates. The conditions noted are these: S1D12 mAb capture; WT, L1, L66+/- and L66+/+. In kind it is binding. How it is done: Mouse brain lysates were prepared from wildtype, Line 1, Line 66+/+ and Line 66+/− (Melis et al., 2015, all surplus from Charles River, part of study R0144). All animals were female, 7-8 months old except Line 66+/+ which were 5 months old. […] The L1 cDNA construct (FIG. 23) contains human tau cDNA coding for amino acid residues 296-390 with a signal sequence and related sequences in a murine Thy-1 expression cassette. For brain lysate preparation, half brains were sectioned into four and the individual sections were homogenised in 400 μl of ice cold RIPA buffer (Cell signalling Technology) containing protease and phosphatase inhibitors. Total protein concentrations for individual samples were established by BCA-assay and each sample was subsequently diluted to 1 mg/ml for future experiments.
For capture ELISA, 100 µL S1D12 capture mAb was used to coat a nunc 96 well Maxisorp plate at 1 μg/ml and incubated for 1 hour at 37° C. Plate was washed as previously and then blocked for 1 hour at 37° C., in 2% MPBS. Brain homogenate samples (50 ng total protein) from each mouse type were added to the first wells and double diluted across the plate in PBS. These samples were left to incubate at RT for 1 hour. Various detection scAbs encompassing epitopes of interest were then added to the plate at 1 μg/ml and incubated for 1 h at RT. […]
Background: ELISA stands for enzyme-linked immunosorbent assay.

B1: S1D12: anti-tau clone from immunised sheep, SEQ ID NO: 32 (protein)
scFv: QVQLQESGPSLVKPSQTLSLTCTVSGFSLNNNAVGWVRQAPGKVPESLVGCSSDGTCYYNSALKSRLDITRDTSKNQISLSLSSVTTDDAAVYYCTRGHYSIYGYDYLGTIDYWGPGLLVTVSSEGKSSGASGESKVDDQAVLTQPSSVSGSLGQRVSITCSGSSSNVGGGNSVGWYQHLPGSGLKTIIYDTNSRPSGVPDRFSGSRSGNTATLTINSLQAEDEGDYYCVTGDSTTHDDLVGSGTRLTVLG
modifications: S1D12 amino acid sequence
As for B1, the “dGAE fibrils observed by TEM” value in the data set with dGAE is recorded as “no fibrils were present; also recorded: no fibril formation is observed”.

B2: S1G2: anti-tau clone, SEQ ID NO: 81 (protein)
scFv: QVQLQESGPSLVKPSQTLSLTCTVSGFSLTSNSVGWVRQAPGKAPEWVAGIDTDGEEGYNPALNSRLSITRDTSKSQVSLSLSSVTSEDTAVYYCGRSYRADGLAYGYVQAIDYWGPGLLVTVSSEGKSSGASGESKVDDQAVVTQPSSVSGSLGQRVSITCSGSFIGISSVGWFQQLPGSGLRTIIVASDGRPSGVPDRFSMSKSGNTATLTISSLQAEDEADYFCGSSDRTPYTGVFGSGTRLTVLG
modifications: S1G2 amino acid sequence
For B2, the “LoD direct HRP conjugation of detection scAb & chemiluminescence” value with hT40 turned out to be 0.04 ng/mL. In data set [1], the “tau detection in mouse brain homogenate” value is “tau protein was detected in 50 μg of total brain protein in all four different sample types”.
